US20180155451A1 (published 2018)
Positions count from the first letter of the chain named. Numbers in names are those of the source.

Assays:
[1] = target: T1, Protein A (UniProt P38507 37-327); assay: rProtein A Sepharose column, stepwise pH elution; fractions analysed by cation exchange chromatography
T1 construct: bought resin; construct not described; also called rProtein A Sepharose Fast Flow

[2] = target: T2, FcgRIIa type R extracellular domain with C-terminal His tag (human, UniProt P12318 34-217); assay: SPR (Biacore); KD of IL6R-B3/IL6R-L for this FcgR divided by KD of the sample
T2 construct: extracellular domain; also called FcgRIIaR; FcgRIIa R; not shown: His tag at the C terminus
T2 sequence (looked up): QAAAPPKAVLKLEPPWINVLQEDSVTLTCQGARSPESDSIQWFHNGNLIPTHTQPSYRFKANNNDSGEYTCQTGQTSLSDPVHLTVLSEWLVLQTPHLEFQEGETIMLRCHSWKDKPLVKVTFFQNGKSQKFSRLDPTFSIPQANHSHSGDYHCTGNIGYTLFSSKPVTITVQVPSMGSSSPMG
Description: (§1) Analysis of interaction between obj ective antibody and the FcγR was carried out using Biacore T100 (GE Healthcare), Biacore T200, Biacore A100, and Biacore 4000. HBS-EP+ (GE Healthcare) was used as the running buffer, and the measurement temperature was set to 25° C. Chips produced by immobilizing the antigen peptide by the amine coupling method to a Series S sensor Chip CM5 (GE Healthcare), chips produced by allowing preliminarily biotinylated antigen peptides to interact with and immobilize onto a Series S Sensor Chip SA (certified) (GE Healthcare), chips produced by immobilizing Protein L (ACTIGEN, BioVision) to Series S Sencor Chip CM5 (GE Healthcare), or chips produced by immobilizing Protein A/G (Thermo Scientific) to Series S Sencor Chip CM5 (GE Healthcare) were used. Antibodies of interest were captured onto these chips, and allowed to interact to each FcγR diluted with running buffer. To regenerate and repeatedly use the chip, the antibodies captured onto the chip were washed off by reacting 10 mM glycine-HCl, pH 1.5.

[3] = target: T3, FcgRIIa type H extracellular domain with C-terminal His tag (human, UniProt P12318 34-217); assay: as above
T3 construct: extracellular domain; also called FcgRIIaH; FcgRIIa H; not shown: His tag at the C terminus
T3 sequence (looked up): T2 sequence (looked up) with R134H
Description: as §1

[4] = target: T4, FcgRIIb extracellular domain with C-terminal His tag (human, UniProt P31994 43-217); assay: as above
T4 construct: extracellular domain; Expressed in FreeStyle293 cells; also called FcγRIIb; 2b; not shown: His tag at the C terminus
T4 sequence (looked up): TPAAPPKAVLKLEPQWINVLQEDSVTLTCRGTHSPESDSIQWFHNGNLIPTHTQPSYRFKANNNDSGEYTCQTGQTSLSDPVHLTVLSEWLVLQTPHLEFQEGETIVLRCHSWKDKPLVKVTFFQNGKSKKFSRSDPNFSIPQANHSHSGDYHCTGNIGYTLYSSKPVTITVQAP
Description: as §1

[5] = target: T3, FcgRIIa type H extracellular domain …; assay: SPR (Biacore), antibody captured on chip, soluble FcgR as analyte; too weak for kinetics, KD from steady-state 1:1 equation
Description: (§2) KD can be calculated by substituting the values of Rmax, RI, and C into this equation. The values of RI and C can be determined from the sensorgram of the measurement results and measurement conditions. Rmax was calculated according to the following method.

[6] = target: T5, FcgRIIIa type V extracellular domain with C-terminal His tag (human, UniProt P08637 17-208); assay: as above
T5 construct: extracellular domain; also called FcgRIIIaV; FcgRIIIa V; not shown: His tag at the C terminus
Description: as §2

[7] = target: T6, FcgRIa extracellular domain with C-terminal His tag (human, UniProt P12314 16-292); assay: SPR (Biacore), antibody captured on chip, soluble FcgR as analyte, kinetic 1:1 fit
T6 construct: extracellular domain; Expressed in FreeStyle293 cells; also called FcγRIa; not shown: His tag at the C terminus
Description: (§3) The variants were assessed for the binding activity to FcgR Ia, FcgR IIaR, FcgR IIaH, and FcgRIIb according to the method described in Reference Example 8.
as §1

[8] = target: T2, FcgRIIa type R extracellular domain …; assay: as above
Description: as §3, §1

[9] = target: T4, FcgRIIb extracellular domain with …; assay: as above
Description: as §3, §1

[10] = target: T4, FcgRIIb extracellular domain with …; assay: SPR (Biacore); KD of the sample for FcgRIIaR divided by its KD for FcgRIIb (selectivity for FcgRIIb)
Description: as §1

T5 sequence (P08637 17-208 F176V): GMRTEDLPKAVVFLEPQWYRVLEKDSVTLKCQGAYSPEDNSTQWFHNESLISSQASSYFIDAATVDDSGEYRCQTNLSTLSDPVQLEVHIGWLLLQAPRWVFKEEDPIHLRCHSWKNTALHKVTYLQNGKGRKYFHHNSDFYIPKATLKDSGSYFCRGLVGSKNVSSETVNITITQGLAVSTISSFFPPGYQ
T6 sequence (P12314 16-292): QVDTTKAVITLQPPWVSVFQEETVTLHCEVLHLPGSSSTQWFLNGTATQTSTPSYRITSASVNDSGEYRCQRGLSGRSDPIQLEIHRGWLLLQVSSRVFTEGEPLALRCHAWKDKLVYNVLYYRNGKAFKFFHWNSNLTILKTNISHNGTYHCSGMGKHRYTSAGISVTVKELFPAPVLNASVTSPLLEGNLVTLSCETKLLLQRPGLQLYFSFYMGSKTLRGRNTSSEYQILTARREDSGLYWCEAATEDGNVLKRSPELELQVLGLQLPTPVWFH

B1: J142-z72/L180-k (antibody, human IgG4 S228P, kappa)
heavy: QVQLVQSGSELKKPGASVKVSCKASGYTFTDNNMDWVRQAPGQGLEWMGDINTRSGGSIYNEEFQDRVTMTIDKSTGTAYMELSSLRSEDTAVYYCARRRSYGYYHDEWGEGTLVTVSSASTKGPSVFPLAPCSRSTSESTAALGCLVKDYFPEPVTVSWNSGALTSGVHTFPAVLQSSGLYSLSSVVTVPSSSLGTKTYTCNVDHKPSNTKVDKRVESKYGPPCPPCPAPEFLGGPSVFLFPPKPKDTLMISRTPEVTCVVVDVSQEDPEVQFNWYVDGVEVHNAKTKPREEQFNSTYRVVSVLTVLHQDWLNGKEYKCKVSNKGLPSSIEKTISKAKGQPREPQVYTLPPSQEEMTKNQVSLTCLVKGFYPSDIAVEWESNGQPENNYKTTPPVLDSDGSFFLYSRLTVDKSRWQEGNVFSCSVMHEALHNRFTQKSLSLSP
light: DIQMTQSPSSLSASVGDRVTITCKASRNIERNLAWYQQKPGQAPELLIYSASRKESGVPDRFSGSRYGTDFTLTISSLQPEDLATYYCQQYYSPPLTFGGGTKVEIKRTVAAPSVFIFPPSDEQLKSGTASVVCLLNNFYPREAKVQWKVDNALQSGNSQESVTEQDSKDSTYSLSSTLTLSKADYEKHKVYACEVTHQGLSSPVTKSFNRGEC
notes: also called homomeric antibody against FX
[1]
  binding result: no binding

B2: J300-z107/L210-k (antibody, human IgG4 S228P, kappa)
heavy: QVQLVQSGSELKKPGASVKVSCKASGYTFTDNNMDWVRQAPGQGLEWMGDINTRSGGSIYNEEFQDRVIMTVDKSTDTAYMELSSLRSEDTAVYHCARRKSYGYYLDEWGEGTLVTVSSASTKGPSVFPLAPCSRSTSESTAALGCLVKDYFPEPVTVSWNSGALTSGVHTFPAVLQSSGLYSLSSVVTVPSSSLGTQTYTCNVDHKPSNTKVDKRVESKYGPPCPPCPAPEFLGGPSVFLFPPKPKDTLMISRTPEVTCVVVDVSQEDPEVQFNWYVDGVEVHNAKTKPREEQYNSTYRVVSVLTVLHQDWLNGKEYKCKVSNKGLPSSIEKTISKAKGQPREPQVYTLPPSQEEMTKNQVSLTCLVKGFYPSDIAVEWESNGQPENNYKTTPPVLDSDGSFFLYSKLTVDKSRWQEGNVFSCSVMHEALHNRYTQESLSLSP
light: B1 light with L83I, Y92S
notes: z107 carries H435R; also called homomeric antibody against FX
[1]
  binding result: no binding

B3: J142-z73/L180-k (antibody, human IgG4 S228P, kappa)
heavy: B1 heavy with K438E
light: B1 light
notes: as for B1
[1]
  binding result: no binding

B4: IL6R-BP257/IL6R-L (antibody, human IgG1, kappa)
heavy: QVQLQESGPGLVKPSETLSLTCAVSGHSISHDHAWSWVRQPPGEGLEWIGFISYSGITNYNPSLQGRVTISRDNSKNTLYLQMNSLRAEDTAVYYCARSLARTTAMDYWGEGTLVTVSSASTKGPSVFPLAPSSKSTSGGTAALGCLVKDYFPEPVTVSWNSGALTSGVHTFPAVLQSSGLYSLSSVVTVPSSSLGTQTYICNVNHKPSNTKVDKKVEPKSCDKTHTCPPCPAPDLLGDDEVFLFPPKPKDTLMISRTPEVTCVVVDVSDEDGEVKFNWYVDGVEVHNAKTKPREEQYNSTYRVVSVLTVLHQDWLNGKEYKCKVSNKALPRPIEKTISKAKGQPREPQVYTLPPSRDELTKNQVSLTCLVKGFYPSDIAVEWESNGQPENNYKTTPPVLDSDGSFFLYSKLTVDKSRWQQGNVFSCSVMHEALHNHYTQESLSLSP
light: not shown
notes: Homodimerized antibody; IL6R-BP257 is IL6R-BP208 with S239E
[2]
  Relative KD: 0.9 ratio
[3]
  Relative KD: 0 ratio
[4]
  Relative KD: 7.2 ratio
[5]
  Kd: 39000 nM
[6]
  Kd: 19000 nM
[7]
  Kd: 0.31 nM
[8]
  Kd: 1300 nM
[9]
  Kd: 430 nM
[10]
  KD(IIaR)/KD(IIb): 3 ratio
